# Read-outs that look alike come from different tables or passages of the source.
# Key:
# [1] = molecular target: Alf1p-myc (S. cerevisiae) (UniProt P53904); test: co-IP
# [2] = molecular target: Alf1p-myc (S. cerevisiae) (UniProt P53904); test: co-IP; remark: listed apart in the source
# UniProt P53904, sequence (P53904 whole entry): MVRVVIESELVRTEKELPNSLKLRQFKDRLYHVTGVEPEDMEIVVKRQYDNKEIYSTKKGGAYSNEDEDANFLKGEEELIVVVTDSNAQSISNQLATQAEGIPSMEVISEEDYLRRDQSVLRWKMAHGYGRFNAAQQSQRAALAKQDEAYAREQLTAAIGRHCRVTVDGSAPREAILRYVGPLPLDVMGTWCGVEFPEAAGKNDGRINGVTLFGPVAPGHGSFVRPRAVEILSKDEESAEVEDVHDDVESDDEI
substance,measurement,setting,value
"α-tubulin, endogenous in yeast extract (from UniProt P09733 1-447) (natural protein)",ratio of α-tubulin to β-tubulin precipitated,[1],2 fold
same,ratio of α-tubulin to β-tubulin precipitated,[2],20 fold
